Results on four molecules are retold here after publication PMC5573408 (2017).

One may read the Kd as a measure of binding affinity in units of concentration. The term Ki denotes the equilibrium dissociation constant of an inhibitor or competing ligand from its target. Lower therefore signals higher affinity.

Assay [1] deals with T1, Cannabinoid receptor 2 (Homo sapiens, UniProt P34972). The assay is described as follows: fluorescence saturation binding on CHO-K1-hCB2 cells.
The target of assay [2] is T1, Cannabinoid receptor 2. The assay is described as follows: radioligand binding [3H]WIN55,212-2, ternary complex allosteric model.
Assay [3] has as its target T1, Cannabinoid receptor 2. The assay is described as follows: fluorescent pepcan-F4 displacement on CHO-K1-hCB2 cells.
Assay [4] addresses T1, Cannabinoid receptor 2. The assay is described as follows: radioligand binding [3H]CP55,940, ternary complex allosteric model.

No end group written: not given here. fluorescein = fluorescein, fluorescent label at the C-terminus

T1 sequence (P34972 whole entry): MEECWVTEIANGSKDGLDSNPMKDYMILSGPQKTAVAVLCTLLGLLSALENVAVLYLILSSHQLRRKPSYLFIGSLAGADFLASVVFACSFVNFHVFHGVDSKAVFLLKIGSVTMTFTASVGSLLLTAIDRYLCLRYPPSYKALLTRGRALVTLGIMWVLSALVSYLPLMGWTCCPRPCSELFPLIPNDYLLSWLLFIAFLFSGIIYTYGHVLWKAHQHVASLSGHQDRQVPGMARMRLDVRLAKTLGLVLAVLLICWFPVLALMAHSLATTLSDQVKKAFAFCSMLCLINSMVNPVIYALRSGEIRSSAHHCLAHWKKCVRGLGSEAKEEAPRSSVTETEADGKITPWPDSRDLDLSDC

For RVDPVNFKLLSH-fluorescein [Pepcan-F4], in the assay with Cannabinoid receptor 2 [1], the Kd is 122 nM. Turning to RVDPVNFKLLSH ([3H]WIN55,212-2 present), the Kd with Cannabinoid receptor 2 [2] is 53 nM. RVDPVNFKLLSH came in with a Ki with Cannabinoid receptor 2 [3] of 44 nM. In the case of RVDPVNFKLLSH ([3H]CP55,940 present), in the assay with Cannabinoid receptor 2 [4], binding was put at a Kd of 58 nM. This counts as double-digit nanomolar.
